# From US20210253643A1 (UNIVERSITY OF BRITISH COLUMBIA, published 2021)
# T1: FhuA (E. coli, UniProt P06971 34-747)
# T1 construct: also called FhuA receptor; FhuA transporter
# T1 sequence (looked up): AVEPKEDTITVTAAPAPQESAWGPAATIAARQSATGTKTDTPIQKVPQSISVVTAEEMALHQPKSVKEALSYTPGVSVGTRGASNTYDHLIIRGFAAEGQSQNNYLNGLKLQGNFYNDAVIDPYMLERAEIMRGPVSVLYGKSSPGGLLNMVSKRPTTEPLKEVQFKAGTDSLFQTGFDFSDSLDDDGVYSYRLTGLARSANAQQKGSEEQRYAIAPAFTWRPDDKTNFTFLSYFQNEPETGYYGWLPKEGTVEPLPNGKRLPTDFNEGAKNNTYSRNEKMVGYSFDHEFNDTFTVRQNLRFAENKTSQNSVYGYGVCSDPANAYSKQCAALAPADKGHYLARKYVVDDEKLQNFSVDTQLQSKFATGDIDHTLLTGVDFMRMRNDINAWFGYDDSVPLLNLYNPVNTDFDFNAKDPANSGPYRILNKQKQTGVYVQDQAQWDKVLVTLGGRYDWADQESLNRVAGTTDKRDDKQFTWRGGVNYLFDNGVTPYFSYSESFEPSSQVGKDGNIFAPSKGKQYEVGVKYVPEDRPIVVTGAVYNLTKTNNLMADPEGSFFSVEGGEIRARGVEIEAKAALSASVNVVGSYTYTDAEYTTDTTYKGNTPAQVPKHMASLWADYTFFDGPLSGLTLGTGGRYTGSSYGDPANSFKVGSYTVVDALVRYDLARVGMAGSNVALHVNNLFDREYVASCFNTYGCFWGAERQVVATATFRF
# Biological target: T1, FhuA
# Assay: CN-PAGE band shift, Coomassie: about 2 µg FhuA in MSPL156 nanodisc with 5 µg colicin M, 5 min at room temperature, without and with ferricrocin
binder,measurement,value
"Colicin M (other, also called ColM; His-tagged Colicin M) METLTVHAPSPSTNLPSYGNGAFSLSAPHVPGAGPLLVQVVYSFFQSPNMCLQALTQLEDYIKKHGASNPLTLQIISTNIGYFCNADRNLVLHPGISVYDAYHFAKPAPSQYDYRSMNMKQMSGNVTTPIVALAHYLWGNGAERSVNIANIGLKISPMKINQIKDIIKSGVVGTFPVSTKFTHATGDYNVITGAYLGNITLKTEGTLTISANGSWTYNGVVRSYDDKYDFNASTHRGIIGESLTRLGAMFSGKEYQILLPGEIHIKESGKR",binding result,binds
